Patent publication US20200071380A1, “COMBINATION THERAPIES COMPRISING SIRP ALPHA-BASED CHIMERIC PROTEINS” (Shattuck Labs, Inc., priority 2018, published 2020)

What was measured:
FcγR-Ia = FcγR-Ia (Homo sapiens, UniProt P12314); test: SPR binding to FcγR-Ia; details: surface plasmon resonance (SPR)
Text: Scale is shown and yellow arrows correspond with each identified monomer. A schematic of the hexamer species is shown to the right, depicting dimerization of the Fc domain and trimerization of the CD40L domain. […] Recombinant hSIRPα-Fc, hCD40L-Fc, and hIgG1 were used as positive controls. […] In both panels, the CHOK1 Parental is on the left and the CHOK1/hCD47 is on the right. […] For both graphs, the CHOK1 Parental is on the bottom. […] In this figure, the control is the top curve, the SIRPα-Fc-CD40L is the middle curve, and the anti-CD47 is the bottom curve.
The extracellular domain (ECD) of SIRPα and the ECD of CD40L were fused via an antibody Fc domain to generate SIRPαECD-Fc-CD40LECD chimeric proteins. When human proteins were used, the chimeric protein is referred to as hSIRPα-Fc-CD40L; when murine proteins were used, the chimeric protein is referred to as and mSIRPα-Fc-CD40L. […] The purified protein was then analyzed for the presence of each individual domain by Western blotting using anti-SIRPα, anti-Fc, and anti-CD40L antibodies (FIG. 3A, bottom). […] Next, binding affinities for SIRPα-Fc-CD40L to recombinant CD47, CD40, or Fc receptors were evaluated by surface plasmon resonance (SPR). […] A functional ELISA evaluated whether SIRPα-Fc-CD40L could outcompete a commercially available single-sided SIRPα-Fc control for binding to recombinant CD47 (FIG. 3H).

FcγR-IIb = biological target: T1, FcγR-IIb (Homo sapiens, UniProt P31994); test: SPR binding to FcγR-IIb; details: surface plasmon resonance (SPR)
T1 sequence (P31994 43-310): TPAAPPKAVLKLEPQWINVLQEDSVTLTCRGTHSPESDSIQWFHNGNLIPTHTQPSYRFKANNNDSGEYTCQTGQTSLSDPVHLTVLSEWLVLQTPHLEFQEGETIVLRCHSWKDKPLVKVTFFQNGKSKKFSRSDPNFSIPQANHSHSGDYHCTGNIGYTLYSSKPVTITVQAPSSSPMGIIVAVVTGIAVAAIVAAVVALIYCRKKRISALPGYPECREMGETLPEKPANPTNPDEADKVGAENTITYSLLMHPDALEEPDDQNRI
Text: (§1) The extracellular domain (ECD) of SIRPα and the ECD of CD40L were fused via an antibody Fc domain to generate SIRPαECD-Fc-CD40LECD chimeric proteins. When human proteins were used, the chimeric protein is referred to as hSIRPα-Fc-CD40L; when murine proteins were used, the chimeric protein is referred to as and mSIRPα-Fc-CD40L. Generically, the chimeric protein is referred to as SIRPα-Fc-CD40L. […] Mammalian cells were then transfected with the hSIRPα-Fc-CD40L expressing construct, and the secreted protein was purified from conditioned media by affinity chromatography. The purified protein was then analyzed for the presence of each individual domain by Western blotting using anti-SIRPα, anti-Fc, and anti-CD40L antibodies (FIG. 3A, bottom). […] The reduced and deglycosylated form of the protein migrated at the predicted monomeric molecular weight of 90.1 kDa. […] Next, binding affinities for SIRPα-Fc-CD40L to recombinant CD47, CD40, or Fc receptors were evaluated by surface plasmon resonance (SPR). […] Finally, to confirm that SIRPα-Fc-CD40L interacted with native CD47 and CD40 in a similar manner to recombinant CD47 and CD40, CHOK1-hCD47 and CHOK1-hCD40 reporter cell lines were developed (FIG. 3F). […] A functional ELISA evaluated whether SIRPα-Fc-CD40L could outcompete a commercially available single-sided SIRPα-Fc control for binding to recombinant CD47 (FIG. 3H).

FcγR-IIIb = FcγR-IIIb (Homo sapiens, UniProt O75015); test: SPR binding to FcγR-IIIb; details: surface plasmon resonance (SPR)
FcγR-IIIb, sequence (O75015 17-200): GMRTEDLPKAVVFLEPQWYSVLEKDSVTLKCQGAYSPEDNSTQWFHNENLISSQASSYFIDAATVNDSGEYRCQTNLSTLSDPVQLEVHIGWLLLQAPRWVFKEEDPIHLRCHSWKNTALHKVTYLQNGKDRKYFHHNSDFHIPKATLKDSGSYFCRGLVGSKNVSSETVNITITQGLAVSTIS
Text: as §1

[1] = system: CD8+ T cell-depleted PBMC; test: IL-2 ELISpot of CD8+ T cell-depleted PBMC; assay type: cell-based, human; details: day 8 of the culture
Experimental: (§2) Here, proliferation was assessed via [^3H]-Thymidine incorporation on days 5, 6, and 7. The order of samples (in triplicate) along the X-axis is media only, KLH, Exenatide, 0.3 nm SIRPα-Fc-CD40L, 3 nm SIRPα-Fc-CD40L, 30 nm SIRPα-Fc-CD40L and 300 nm SIRPα-Fc-CD40L. […] Here, proliferation was assessed by ELISpot. The order of samples (in triplicate) along the X-axis is media only, KLH, Exenatide, 0.3 nm SIRPα-Fc-CD40L, 3 nm SIRPα-Fc-CD40L, 30 nm SIRPα-Fc-CD40L and 300 nm SIRPα-Fc-CD40L.
(§3) The observation that SIRPα-Fc-CD40L stimulated CD40 signaling prompted investigation of other cellular functions that depend upon CD40 signaling. CD8+ T cell-depleted PBMC were isolated from a total of 33-50 different human donors and cultured in the presence of a dose-titration of hSIRPα-Fc-CD40L (FIG. 6A and FIG. 6B).

[2] = Repeat-dose safety and activity study in cynomolgus macaques; assay type: in vivo; details: intravenous infusion every week for five weeks, 0.1, 1, 10 and 40 mg/kg
Experimental: FIG. 21A-D is a graph showing cynomolgus macaques that were treated with vehicle, or 0.1, 1, 10, and 40 mg/kg of SIRPα-Fc-CD40L. Blood chemistry analysis assessed peripheral erythrocyte counts (FIG. 21A), hemoglobin levels (FIG. 21C), and hematocrit (FIG. 21B). In addition, the fold-change in lymphocyte count from pre-dose to 24 hours post-dose is shown (FIG. 21D).
The experiments of this example tested the safety and activity of the human SIRPα-Fc-CD40L chimeric protein following repeat doses in cynomolgus macaques. Briefly, naïve cynomolgus macaques were administered the human SIRPα-Fc-CD40L chimeric protein by intravenous infusion every week, for five consecutive weeks, at doses of 0.1, 1, 10 and 40 mg/kg. Standard hematology and clinical chemistry parameters were collected before and after each dose.
Receptor occupancy was evaluated on circulating CD40+ lymphocytes.

[3] = system: CD8+ T cell-depleted PBMC; test: Proliferation of CD8+ T cell-depleted PBMC ([3H]-thymidine); assay type: cell-based, human; details: 0.3, 3, 30, or 300 nM; 7-day culture
Experimental: as §2, §3

FcγR-Ia, sequence (P12314 16-374): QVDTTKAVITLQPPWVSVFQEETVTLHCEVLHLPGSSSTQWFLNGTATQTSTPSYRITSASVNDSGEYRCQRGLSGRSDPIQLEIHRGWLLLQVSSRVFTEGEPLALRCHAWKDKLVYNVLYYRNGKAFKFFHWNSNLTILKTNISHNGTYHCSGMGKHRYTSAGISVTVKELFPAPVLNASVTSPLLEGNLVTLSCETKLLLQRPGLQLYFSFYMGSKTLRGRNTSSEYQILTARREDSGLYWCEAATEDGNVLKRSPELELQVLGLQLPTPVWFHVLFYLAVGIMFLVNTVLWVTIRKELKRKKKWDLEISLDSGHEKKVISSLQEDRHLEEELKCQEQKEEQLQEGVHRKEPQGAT

Substance: hSIRPα-Fc-CD40L: Chimeric protein: human SIRPα extracellular domain fused via an antibody Fc domain to human CD40L extracellular domain (SEQ ID NO: 60)
- binding to FcγR-Ia (FcγR-Ia): undetectable binding
- binding to FcγR-IIb (FcγR-IIb): undetectable binding
- binding to FcγR-IIIb (FcγR-IIIb): undetectable binding
- number of IL-2-secreting PBMC [1]: dose-dependent increase in the number of IL-2-secreting PBMC
- hemolysis or thrombocytopenia [2]: no evidence of hemolysis or thrombocytopenia
- proliferation of human PBMC [3]: dose-dependent proliferation of human PBMC
